According to article PMC8510550:

Target: VirB4-like TraB ATPase of the pKM101-encoded type IV secretion system (plasmid pKM101 (carried in E. coli))
Assay: cryo-EM structure; in situ cryo-electron tomography with subtomogram averaging of T4SS(pKM101) machines in E. coli UU2834 minicells; 6-fold symmetry seen in class averages and then imposed for the IMC; wild type compared with ΔtraB mutant machines

For “VirB4-like TraB ATPase of the pKM101-encoded type IV secretion system (enzyme)”, the stoichiometry N was 12.
